In assay [1] the target is TREM-1 expressed on the monocyte cell membrane (human (endogenous in monocytes)) (UniProt Q9NP99).
The target is the same in assay [2]. This is another data set of the same source.

Sequence of TREM-1 expressed on the monocyte cell membrane (human (endogenous in monocytes)) (Q9NP99 21-234): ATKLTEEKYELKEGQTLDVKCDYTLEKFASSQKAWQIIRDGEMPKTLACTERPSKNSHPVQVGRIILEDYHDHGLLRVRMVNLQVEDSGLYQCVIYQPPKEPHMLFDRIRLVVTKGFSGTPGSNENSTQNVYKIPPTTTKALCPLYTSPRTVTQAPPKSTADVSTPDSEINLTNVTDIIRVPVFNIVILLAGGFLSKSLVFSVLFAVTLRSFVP

In assay [1], “recombinant human Hsp70 (major heat shock protein 70) (from UniProt P0DMV8 1-641) (natural protein)” registered a cytotoxicity against target cells of lymphocytes activated in PBMCs by six-day treatment with rising Hsp70 concentration (half maximal effective concentration) of 0.5 nM and an inhibition of the cytotoxicity of Hsp70-activated lymphocytes by the TREM-1 inhibitor peptide LP17 (…), against LP17 concentration; not completely suppressed at higher concentration of 0.01 nM. This substance also had a cytotoxic activity of NK cells isolated on days four and six from PBMCs incubated with Hsp70 with or without the TREM-1 inhibitor LP17 (no difference on day six) in assay [2] of 40%.

For the origin of these results see paper PMC8267615.
